Data reported in patent US6458552B1, “Metalloprotease peptide substrates and methods” (Ortho-McNeil Pharmaceutical, Inc., priority 2000, dated 2002).
Each block holds one molecule with its values, some of them ahead of it.

Columns and labels:
[1] = target: T1, ADAM17 (Homo sapiens, UniProt P78536); test: FRET peptide substrate screening, ADAM17; type: biochemical; set-up: key: from one star (*) to five stars (*****) to indicate weaker to more potent substrates respectively; from one star (*) to five stars (*****) to indicate weaker to more potent substrates respectively; from one star (*) to five stars (*****) to indicate weaker to more potent substrates respectively; from one star (*) to five stars (*****) to indicate weaker to more potent substrates respectively; (—) = no detectable activity; details: FRET peptide 20 uM, room temperature
T1 construct: made in house
From the text: (§1) Forty nine different peptides were synthesized for testing protease activity. The peptides comprised (i) a collection of substrates for other proteases, as well as (ii) a number of sequences corresponding to membrane proximal cleavage sites of various proteins postulated to be released by metalloproteases (including those published by (Roghani et al., 1999) for ADAM9/MDC9). In order to use the principle of fluorescence resonance energy transfer, or FRET, for the assay, the peptides were labelled at the C-terminus with Dabcyl and at the N-terminus with Edans. Thus cleavage of the peptides can be monitored by the increase in Edans fluorescence at 460 nm (excitation 360 nm) as a result of the decrease in proximity of the Dabcyl quencher. The assay was performed by diluting the ADAM8, ADAM15, MDC-L, or ADAM17 (50 to 100 ng of protein, one to two picomoles) in assay buffer, 10 mM HEPES, pH 7.5, containing 0.001% Brij35. The reaction was initiated by the addition of peptide substrate to a final concentration of 20 uM. The assays were typically run for 20 to 60 minutes at room temperature and the slope of the kinetic increase in fluorescence was determined to calculate the rate of the reaction. If necessary, it was possible to stop the reaction at a certain time by the addition of 1/10th volume of 1M NaOAc (sodium acetate), pH 3.5.
(§2) This peptide was cleaved by all enzymes, and thus was chosen to represent a standard by which to compare the relative activity of the various enzymes for their potential to cleave the various peptide substrates.

[2] = target: T2, ADAM8 (Homo sapiens, UniProt P78325); test: FRET peptide substrate screening, ADAM8; type: biochemical; set-up: key: from one star (*) to five stars (*****) to indicate weaker to more potent substrates respectively; from one star (*) to five stars (*****) to indicate weaker to more potent substrates respectively; from one star (*) to five stars (*****) to indicate weaker to more potent substrates respectively; from one star (*) to five stars (*****) to indicate weaker to more potent substrates respectively; (—) = no detectable activity; details: FRET peptide 20 uM, room temperature
T2 construct: FLAG (C); made in house; host or cells: Sf9 insect cells (baculovirus, pFastBac1)
T2 sequence (P78325 200-400 limits assumed): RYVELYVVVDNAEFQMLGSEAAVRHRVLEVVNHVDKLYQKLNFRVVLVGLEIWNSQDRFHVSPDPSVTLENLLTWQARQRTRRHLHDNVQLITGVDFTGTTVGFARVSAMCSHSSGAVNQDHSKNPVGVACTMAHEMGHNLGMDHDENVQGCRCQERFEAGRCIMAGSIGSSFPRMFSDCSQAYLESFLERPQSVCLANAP
From the text: as §1, §2

[3] = target: T3, ADAM15 (Homo sapiens, UniProt Q13444); test: FRET peptide substrate screening, ADAM15; type: biochemical; set-up: key: from one star (*) to five stars (*****) to indicate weaker to more potent substrates respectively; from one star (*) to five stars (*****) to indicate weaker to more potent substrates respectively; from one star (*) to five stars (*****) to indicate weaker to more potent substrates respectively; from one star (*) to five stars (*****) to indicate weaker to more potent substrates respectively; (—) = no detectable activity; details: FRET peptide 20 uM, room temperature
T3 construct: FLAG (C); made in house; host or cells: Sf9 insect cells (baculovirus, pFastBac1)
T3 sequence (Q13444 213-414 limits assumed): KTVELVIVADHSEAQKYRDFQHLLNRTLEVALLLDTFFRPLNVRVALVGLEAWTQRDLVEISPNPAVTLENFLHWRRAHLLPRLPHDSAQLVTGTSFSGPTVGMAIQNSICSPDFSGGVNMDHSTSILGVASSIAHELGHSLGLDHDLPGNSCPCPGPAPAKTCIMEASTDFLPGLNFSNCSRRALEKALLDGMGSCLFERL
From the text: as §1, §2

[4] = target: T4, MDC-L (Homo sapiens, UniProt Q9UKQ2); test: FRET peptide substrate screening, MDC-L; type: biochemical; set-up: key: from one star (*) to five stars (*****) to indicate weaker to more potent substrates respectively; from one star (*) to five stars (*****) to indicate weaker to more potent substrates respectively; from one star (*) to five stars (*****) to indicate weaker to more potent substrates respectively; from one star (*) to five stars (*****) to indicate weaker to more potent substrates respectively; (—) = no detectable activity; details: FRET peptide 20 uM, room temperature
T4 construct: FLAG (C); made in house; host or cells: Sf9 insect cells (baculovirus, pFastBac1)
T4 sequence (Q9UKQ2 204-399 limits assumed): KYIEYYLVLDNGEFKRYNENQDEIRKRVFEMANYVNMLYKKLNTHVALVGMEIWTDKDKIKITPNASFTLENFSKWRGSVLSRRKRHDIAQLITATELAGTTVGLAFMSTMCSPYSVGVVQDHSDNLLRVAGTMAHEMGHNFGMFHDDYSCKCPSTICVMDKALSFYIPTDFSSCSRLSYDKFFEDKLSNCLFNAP
From the text: as §1, §2

[5] = target: T2, ADAM8; test: Kinetic analysis of the affinity of ADAM8 for cleavage of 4 peptides; type: biochemical; details: for K0.5 (substrate concentration at which the enzyme activity was 50% of the Vmax): ADAM8, 30 minutes at room temperature, by inspection of the fitted curves; for Cleavage site of ADAM8 within the peptide: carot marks the cleavage site
Method: To confirm the screening assay, ADAM8 was further analyzed for its catalytic rate for 4 different peptides. The assay was performed by diluting the ADAM8 in assay buffer, 10 mM HEPES, pH 7.5, containing 0.001% Brij35. […] The assay was run for 30 minutes at room temperature. […] The curves were fitted to the data with the program Grafit (Erithacus Software). […] The Vmax for each substrate was calculated by non-linear fitting of the data. The substrate concentration at which the enzyme activity was 50% of the Vmax (designated “K0.5”) was determined by inspection of the fitted curves. Table 2 also provides the cleavage site of ADAM8 within each peptide, as indicated by a carot within the peptide sequence.

[6] = target: T5, AD8P2 FRET peptide X-RVRRALPS-Z (not fully specified)
T5 chain: RVRRALPS

[7] = target: T6, KAS-1 FRET peptide Z-RGVVNASSRLAK-X (not fully specified)
T6 chain: RGVVNASSRLAK

[8] = target: T7, AD8P FRET peptide X-RTAAVFRP-Z (not fully specified)
T7 chain: RTAAVFRP

[9] = target: T8, TNFα FRET peptide X-PLAQAVRSSS-Z (not fully specified)
T8 chain: PLAQAVRSSS

[10] = target: T9, Mat FRET peptide Z-RPLGLAR-X (not fully specified)
T9 chain: RPLGLAR

[11] = target: T10, CD27L FRET peptide X-RFAQAQQQLP-Z (not fully specified)
T10 chain: RFAQAQQQLP

[12] = target: T11, CatE1 FRET peptide X-KPAKFFRL-Z (not fully specified)
T11 chain: KPAKFFRL

[13] = target: T12, TNFα(-4 + 6) FRET peptide Z-LAQAVRSSSR-X (not fully specified)
T12 chain: LAQAVRSSSR

[14] = target: T13, CatE FRET peptide X-KPAAFFRL-Z (not fully specified)
T13 chain: KPAAFFRL

[15] = target: T14, TNFB2 FRET peptide X-PSAAQTARQHP-Z (not fully specified)
T14 chain: PSAAQTARQHP

[16] = target: T15, KL1 FRET peptide X-PPVAASSLRN-Z (not fully specified)
T15 chain: PPVAASSLRN

[17] = system: membrane-bound CD23; test: Cleavage of CD23 from the surface of U937 cells by ADAM enzymes (flow cytometry); type: cell-based, human; details: U-937 cells, one hour at 37° C.
Method: U-937 (ATCC CRL-1593.2), a monoblastoid cell line, were harvested, washed and resuspended in HEPES-buffered saline, pH 7.5. Then the cells were treated for one hour at 37° C. in the absence or presence of ADAM8, ADAM17, ADAM15 or MDC-L. As a further control, some cells were incubated in the presence of ADAM8, ADAM17, ADAM15 or MDC-L with the addition of Inhibitor C. Intact, membrane-bound CD23 was then detected by staining the cells with a FITC-conjugated anti-human CD23 antibody (Pharmingen) and detection by flow cytometry.

T1 sequence (P78536 215-824, species assumed): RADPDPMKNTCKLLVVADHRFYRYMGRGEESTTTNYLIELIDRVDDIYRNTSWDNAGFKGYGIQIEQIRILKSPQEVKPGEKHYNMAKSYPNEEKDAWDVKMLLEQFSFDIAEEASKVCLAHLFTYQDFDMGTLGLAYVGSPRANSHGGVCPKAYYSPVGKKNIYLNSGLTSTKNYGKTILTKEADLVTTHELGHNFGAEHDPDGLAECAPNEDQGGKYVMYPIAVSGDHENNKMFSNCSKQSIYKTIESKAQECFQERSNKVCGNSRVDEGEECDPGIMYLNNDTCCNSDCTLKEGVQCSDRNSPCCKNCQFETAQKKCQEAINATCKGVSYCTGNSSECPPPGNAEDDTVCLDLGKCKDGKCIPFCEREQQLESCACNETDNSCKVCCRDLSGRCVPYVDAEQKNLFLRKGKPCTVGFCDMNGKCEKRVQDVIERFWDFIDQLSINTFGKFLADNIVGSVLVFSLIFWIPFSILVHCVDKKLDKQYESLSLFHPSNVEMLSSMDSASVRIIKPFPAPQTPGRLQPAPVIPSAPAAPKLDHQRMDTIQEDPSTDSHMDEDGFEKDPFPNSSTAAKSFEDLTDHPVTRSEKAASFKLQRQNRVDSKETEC

- Relative proteolytic activity ADAM17 [1]: (—)
- Relative proteolytic activity ADAM8 [2]: *****
- Relative proteolytic activity ADAM15 [3]: *****
- Relative proteolytic activity MDC-L [4]: *****
- K0.5 (substrate concentration at which the enzyme activity was 50% of the Vmax) [5]: 5 µM
- Cleavage site of ADAM8 within the peptide [5]: XKPAAF^FRLZ
Molecule: X-KPAAFFRL-Z ({Edans‑E}-KPAAFFRL-{dabcyl‑K}) [CatE, FRET peptide substrate; X = Edans-E; Z = dabcyl-K]

- Relative proteolytic activity ADAM17 [1]: (—)
- Relative proteolytic activity ADAM8 [2]: ****
- Relative proteolytic activity ADAM15 [3]: ****
- Relative proteolytic activity MDC-L [4]: ****
- K0.5 (substrate concentration at which the enzyme activity was 50% of the Vmax) [5]: 5 µM
- Cleavage site of ADAM8 within the peptide [5]: XRFAQA^QQQLPZ
Molecule: X-RFAQAQQQLP-Z ({Edans‑E}-RFAQAQQQLP-{dabcyl‑K}) [CD27L, FRET peptide substrate; X = Edans-E; Z = dabcyl-K]

B1: soluble recombinant human MDC-L, active form (protein)
chain: VQEHEKYIEYYLVLDNGEFKRYNENQDEIRKRVFEMANYVNMLYKKLNTHVALVGMEIWTDKDKIKITPNASFTLENFSKWRGSVLSRRKRHDIAQLITATELAGTTVGLAFMSTMCSPYSVGVVQDHSDNLLRVAGTMAHEMGHNFGMFHDDYSCKCPSTICVMDKALSFYIPTDFSSCSRLSYDKFFEDKLSNCLFNAP
- Relative proteolytic activity [6]: ***
- Relative proteolytic activity [7]: ***
- Relative proteolytic activity [8]: *
- Relative proteolytic activity [9]: ***
- Relative proteolytic activity [10]: ***
- Relative proteolytic activity [11]: ****
- Relative proteolytic activity [12]: *****
- Relative proteolytic activity [13]: *
- Relative proteolytic activity [14]: *****
- Relative proteolytic activity [15]: ***
- Relative proteolytic activity [16]: ***

B2: MDC-L: recombinant soluble MDC-L: pro- and protease domains with C-terminal FLAG epitope (protein)
chain: B1 chain
modifications: left off: small tags and cut ends
- Cleavage of membrane-bound CD23 from the cell surface [17]: similarly found to cleave membrane-bound CD23

B3: soluble recombinant human ADAM15, active form (protein)
chain: DVVTETKTVELVIVADHSEAQKYRDFQHLLNRTLEVALLLDTFFRPLNVRVALVGLEAWTQRDLVEISPNPAVTLENFLHWRRAHLLPRLPHDSAQLVTGTSFSGPTVGMAIQNSICSPDFSGGVNMDHSTSILGVASSIAHELGHSLGLDHDLPGNSCPCPGPAPAKTCIMEASTDFLPGLNFSNCSRRALEKALLDGMGSCLFERL
- Relative proteolytic activity [6]: ***
- Relative proteolytic activity [7]: ***
- Relative proteolytic activity [8]: *
- Relative proteolytic activity [9]: ***
- Relative proteolytic activity [10]: ***
- Relative proteolytic activity [11]: ****
- Relative proteolytic activity [12]: *****
- Relative proteolytic activity [13]: *
- Relative proteolytic activity [14]: *****
- Relative proteolytic activity [15]: ***
- Relative proteolytic activity [16]: ***

B4: soluble recombinant human ADAM8, active (processed) form (protein)
chain: T2 sequence (P78325 200-400 limits assumed)
- Relative proteolytic activity [6]: ***
- Relative proteolytic activity [7]: ***
- Relative proteolytic activity [8]: *
- Hill coefficient [9]: allosteric kinetics with a Hill coefficient of approximately 3
- K0.5 (substrate concentration at which the enzyme activity was 50% of the Vmax) [9]: 5 µM
- Relative proteolytic activity [9]: ***
- Relative proteolytic activity [10]: ***
- Hill coefficient [11]: allosteric kinetics with a Hill coefficient of approximately 3
- K0.5 (substrate concentration at which the enzyme activity was 50% of the Vmax) [11]: 5 µM
- Relative proteolytic activity [11]: ****
- FRET peptide zymography [12]: lanes 2 and 3 contain active, processed, ADAM8 preparations
- Hill coefficient [12]: allosteric kinetics with a Hill coefficient of approximately 3
- K0.5 (substrate concentration at which the enzyme activity was 50% of the Vmax) [12]: 2.5 µM
- Relative proteolytic activity [12]: *****
- Relative proteolytic activity [13]: *
- Hill coefficient [14]: allosteric kinetics with a Hill coefficient of approximately 3
- K0.5 (substrate concentration at which the enzyme activity was 50% of the Vmax) [14]: 5 µM
- Relative proteolytic activity [14]: *****
- Relative proteolytic activity [15]: ***
- Relative proteolytic activity [16]: ***
